Experimental data published in the supplement of paper PMC9112550, “Optimization of the antimicrobial peptide Bac7 by deep mutational scanning” (BMC Biology, 2022).

System: Escherichia coli TOP10
Experiment: shrunken log2 fold change of peptide-encoding DNA abundance (4.5 h post-induction vs induction); higher = less antimicrobial activity (less host growth inhibition)
Conditions: time post-induction: 4.5 h; library: site-saturation at positions 5, 18, 19, 20
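Also: peptides expressed intracellularly from a pBAD plasmid library in pooled LB shake-flask culture, induced with 0.3% L-arabinose, DNA abundance read by NGS, three biological replicates, DESeq2 with apeglm shrinkage.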

Sequence | shrunken log2 fold change
RRIRNRPPRLPRPRPRPKSQPRP | 0.0119
RRIRNRPPRLPRPRPRPKSRPRP | -0.0139
RRIRNRPPRLPRPRPRPKTDPRP | -0.206
RRIRNRPPRLPRPRPRPKVCPRP | -0.0345
RRIRNRPPRLPRPRPRPKVNPRP | 0.0323
RRIRNRPPRLPRPRPRPKVWPRP | 0.68
RRIRNRPPRLPRPRPRPKWIPRP | 0.0111
RRIRNRPPRLPRPRPRPKYHPRP | -0.442
RRIRNRPPRLPRPRPRPLANPRP | 0.142
RRIRNRPPRLPRPRPRPLCNPRP | -0.324
RRIRNRPPRLPRPRPRPLEMPRP | -0.0434
RRIRNRPPRLPRPRPRPLGEPRP | -0.0638
RRIRNRPPRLPRPRPRPLGLPRP | -0.0325
RRIRNRPPRLPRPRPRPLGVPRP | 0.129
RRIRNRPPRLPRPRPRPLIWPRP | 0.0774
RRIRNRPPRLPRPRPRPLKIPRP | -0.233
RRIRNRPPRLPRPRPRPLLAPRP | 0.253
RRIRNRPPRLPRPRPRPLLCPRP | 0.0225
RRIRNRPPRLPRPRPRPLMFPRP | -0.947
RRIRNRPPRLPRPRPRPLNSPRP | -0.162
RRIRNRPPRLPRPRPRPLPQPRP | 0.229
RRIRNRPPRLPRPRPRPLPVPRP | 0.437
RRIRNRPPRLPRPRPRPLQCPRP | -0.00595
RRIRNRPPRLPRPRPRPLQLPRP | -0.288
RRIRNRPPRLPRPRPRPLRRPRP | 2.43

Sequence | shrunken log2 fold change
RRIRNRPPRLPRPRPRPLTRPRP | 0.0454
RRIRNRPPRLPRPRPRPLTTPRP | -0.07
RRIRNRPPRLPRPRPRPLVSPRP | -0.185
RRIRNRPPRLPRPRPRPLVWPRP | 0.124
RRIRNRPPRLPRPRPRPLYDPRP | -0.0765
RRIRNRPPRLPRPRPRPMAGPRP | 0.0481
RRIRNRPPRLPRPRPRPMAVPRP | -0.0402
RRIRNRPPRLPRPRPRPMDGPRP | -0.261
RRIRNRPPRLPRPRPRPMESPRP | -0.0333
RRIRNRPPRLPRPRPRPMGGPRP | 0.0264
RRIRNRPPRLPRPRPRPMHAPRP | 0.0438
RRIRNRPPRLPRPRPRPMHQPRP | -0.19
RRIRNRPPRLPRPRPRPMKGPRP | -0.0787
RRIRNRPPRLPRPRPRPMKLPRP | -0.282
RRIRNRPPRLPRPRPRPMMFPRP | -0.0478
RRIRNRPPRLPRPRPRPMMIPRP | -0.0237
RRIRNRPPRLPRPRPRPMQKPRP | 0.0161
RRIRNRPPRLPRPRPRPMQPPRP | -0.000687
RRIRNRPPRLPRPRPRPMRKPRP | 0.481
RRIRNRPPRLPRPRPRPMRMPRP | -0.00372
RRIRNRPPRLPRPRPRPMRVPRP | 0.161
RRIRNRPPRLPRPRPRPMRYPRP | -0.154
RRIRNRPPRLPRPRPRPMSAPRP | 0.0853
RRIRNRPPRLPRPRPRPMSWPRP | -0.549
RRIRNRPPRLPRPRPRPMVAPRP | 0.0624

Sequence | shrunken log2 fold change
RRIRNRPPRLPRPRPRPMVGPRP | -0.0679
RRIRNRPPRLPRPRPRPMVPPRP | 0.0885
RRIRNRPPRLPRPRPRPNAGPRP | -0.0954
RRIRNRPPRLPRPRPRPNAVPRP | 0.266
RRIRNRPPRLPRPRPRPNCKPRP | -0.424
RRIRNRPPRLPRPRPRPNDAPRP | -0.221
RRIRNRPPRLPRPRPRPNDIPRP | -0.418
RRIRNRPPRLPRPRPRPNDLPRP | -0.0167
RRIRNRPPRLPRPRPRPNDTPRP | -0.236
RRIRNRPPRLPRPRPRPNEGPRP | 0.000589
RRIRNRPPRLPRPRPRPNGCPRP | -0.0605
RRIRNRPPRLPRPRPRPNGLPRP | 0.00468
RRIRNRPPRLPRPRPRPNGVPRP | -0.0397
RRIRNRPPRLPRPRPRPNHPPRP | -0.318
RRIRNRPPRLPRPRPRPNIPPRP | -0.24
RRIRNRPPRLPRPRPRPNKAPRP | -0.000622
RRIRNRPPRLPRPRPRPNKDPRP | -0.0478
RRIRNRPPRLPRPRPRPNLNPRP | -0.557
RRIRNRPPRLPRPRPRPNNDPRP | -0.934
RRIRNRPPRLPRPRPRPNNLPRP | -0.202
RRIRNRPPRLPRPRPRPNQIPRP | -0.319
RRIRNRPPRLPRPRPRPNRCPRP | -0.0238
RRIRNRPPRLPRPRPRPNRVPRP | -0.0281
RRIRNRPPRLPRPRPRPNSFPRP | -0.00469
RRIRNRPPRLPRPRPRPNSSPRP | -0.219

Sequence | shrunken log2 fold change
RRIRNRPPRLPRPRPRPNWHPRP | -0.111
RRIRNRPPRLPRPRPRPNWIPRP | -0.0612
RRIRNRPPRLPRPRPRPNYCPRP | 0.0133
RRIRNRPPRLPRPRPRPPAMPRP | 0.124
RRIRNRPPRLPRPRPRPPEMPRP | 0.0979
RRIRNRPPRLPRPRPRPPEYPRP | -0.932
RRIRNRPPRLPRPRPRPPFDPRP | 0.141
RRIRNRPPRLPRPRPRPPFHPRP | -0.17
RRIRNRPPRLPRPRPRPPGAPRP | 0.665
RRIRNRPPRLPRPRPRPPGCPRP | 0.109
RRIRNRPPRLPRPRPRPPGFPRP | 1.54
RRIRNRPPRLPRPRPRPPHRPRP | 0.00305
RRIRNRPPRLPRPRPRPPKFPRP | -0.0082
RRIRNRPPRLPRPRPRPPKSPRP | 0.338
RRIRNRPPRLPRPRPRPPLIPRP | -0.193
RRIRNRPPRLPRPRPRPPMKPRP | -0.216
RRIRNRPPRLPRPRPRPPNCPRP | 0.00301
RRIRNRPPRLPRPRPRPPNSPRP | -0.072
RRIRNRPPRLPRPRPRPPNTPRP | -0.0466
RRIRNRPPRLPRPRPRPPPNPRP | 1.04
RRIRNRPPRLPRPRPRPPPQPRP | 0.931
RRIRNRPPRLPRPRPRPPPWPRP | 0.591
RRIRNRPPRLPRPRPRPPQAPRP | 0.0708
RRIRNRPPRLPRPRPRPPRQPRP | 0.449
RRIRNRPPRLPRPRPRPPRSPRP | 0.446

Sequence | shrunken log2 fold change
RRIRNRPPRLPRPRPRPPSSPRP | -0.0814
RRIRNRPPRLPRPRPRPPTFPRP | 0.145
RRIRNRPPRLPRPRPRPPTKPRP | 0.46
RRIRNRPPRLPRPRPRPPVEPRP | 0.272
RRIRNRPPRLPRPRPRPPWCPRP | 0.108
RRIRNRPPRLPRPRPRPPWDPRP | 0.144
RRIRNRPPRLPRPRPRPQDAPRP | -0.131
RRIRNRPPRLPRPRPRPQDDPRP | 0.00776
RRIRNRPPRLPRPRPRPQDHPRP | -0.33
RRIRNRPPRLPRPRPRPQFDPRP | 0.152
RRIRNRPPRLPRPRPRPQFLPRP | 0.106
RRIRNRPPRLPRPRPRPQFTPRP | -0.259
RRIRNRPPRLPRPRPRPQGWPRP | 0.114
RRIRNRPPRLPRPRPRPQHHPRP | -0.432
RRIRNRPPRLPRPRPRPQHTPRP | -0.402
RRIRNRPPRLPRPRPRPQITPRP | -1.07
RRIRNRPPRLPRPRPRPQKPPRP | 0.0646
RRIRNRPPRLPRPRPRPQLCPRP | -0.00259
RRIRNRPPRLPRPRPRPQMGPRP | 0.102
RRIRNRPPRLPRPRPRPQQGPRP | -0.159
RRIRNRPPRLPRPRPRPQQIPRP | -0.23
RRIRNRPPRLPRPRPRPQRLPRP | 0.0491
RRIRNRPPRLPRPRPRPQSGPRP | 0.0495
RRIRNRPPRLPRPRPRPQTEPRP | -0.219
RRIRNRPPRLPRPRPRPQTQPRP | 0.153

Sequence | shrunken log2 fold change
RRIRNRPPRLPRPRPRPQVDPRP | -0.706
RRIRNRPPRLPRPRPRPQVPPRP | 0.0184
RRIRNRPPRLPRPRPRPQWNPRP | -0.319
RRIRNRPPRLPRPRPRPQYQPRP | -0.317
RRIRNRPPRLPRPRPRPRAIPRP | 0.064
RRIRNRPPRLPRPRPRPRCFPRP | -0.404
RRIRNRPPRLPRPRPRPRCNPRP | -0.0207
RRIRNRPPRLPRPRPRPRCQPRP | 0.297
RRIRNRPPRLPRPRPRPREPPRP | 0.697
RRIRNRPPRLPRPRPRPREWPRP | -0.00528
RRIRNRPPRLPRPRPRPRHAPRP | 0.0219
RRIRNRPPRLPRPRPRPRIQPRP | 0.0619
RRIRNRPPRLPRPRPRPRIVPRP | -0.191
RRIRNRPPRLPRPRPRPRKHPRP | -0.194
RRIRNRPPRLPRPRPRPRKIPRP | 0.39
RRIRNRPPRLPRPRPRPRKSPRP | 0.132
RRIRNRPPRLPRPRPRPRKYPRP | -0.258
RRIRNRPPRLPRPRPRPRLAPRP | 0.404
RRIRNRPPRLPRPRPRPRLFPRP | 0.0322
RRIRNRPPRLPRPRPRPRLQPRP | 0.0236
RRIRNRPPRLPRPRPRPRMNPRP | 0.00678
RRIRNRPPRLPRPRPRPRNIPRP | -0.168
RRIRNRPPRLPRPRPRPRNLPRP | -0.0378
RRIRNRPPRLPRPRPRPRNPPRP | 0.0944
RRIRNRPPRLPRPRPRPRNTPRP | -0.505
